In publication doi:10.1101/2020.12.09.418111:

Target: T1, Kaiso without BTB/POZ domain, GST fusion (UniProt Q86T24 113-672)
T1 sequence: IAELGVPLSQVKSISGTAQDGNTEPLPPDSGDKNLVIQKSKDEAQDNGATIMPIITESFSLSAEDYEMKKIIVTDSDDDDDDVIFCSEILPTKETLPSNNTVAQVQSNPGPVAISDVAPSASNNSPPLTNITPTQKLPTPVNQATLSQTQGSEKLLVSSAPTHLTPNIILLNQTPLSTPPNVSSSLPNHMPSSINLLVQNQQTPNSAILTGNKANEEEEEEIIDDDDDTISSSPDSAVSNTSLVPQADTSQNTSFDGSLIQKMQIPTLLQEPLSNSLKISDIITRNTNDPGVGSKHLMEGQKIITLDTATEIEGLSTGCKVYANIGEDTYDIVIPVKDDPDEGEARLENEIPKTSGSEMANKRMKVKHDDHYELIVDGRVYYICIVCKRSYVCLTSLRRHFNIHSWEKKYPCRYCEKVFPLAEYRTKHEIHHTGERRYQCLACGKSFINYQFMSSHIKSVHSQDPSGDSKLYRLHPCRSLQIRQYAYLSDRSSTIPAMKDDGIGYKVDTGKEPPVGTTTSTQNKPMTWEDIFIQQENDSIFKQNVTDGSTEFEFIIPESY
Experiment: EMSA

B1: met-SM-FAM / met-SM methylated probe (dsDNA)
DNA 1: GCAGCCGCGCCCAACGCTGGGAGATC
DNA 2: TCCCCAGCGTTGGGCGCGGCTGCGATC
modifications: 5-methylcytosine (printed meC) at strand 1 positions 6, 8, 15 and strand 2 positions 8, 15, 17
Does B1 bind?
Result: binds
